Assay results published in patent US20220267458A1 (Innovent, published 2022).
Positions count from the first letter of the chain named.

B1: hcIgG-20 (antibody, V domains shown)
VH: QVQLQESGGGSVQAGGSLRLSCASSGYSRTSRWMAWFRQAPGKEREGVAAIYTGGSSTLYANSMADRVTISQDNAKNTVYLRMNNLKPEDTAMYYCAADKLAGDFWLVDRWRAWGQGTQVTVSS
notes: also called heavy-chain antibody of Nb-20
B2: HzhcIgG-20 (antibody, V domains shown)
VH: QVQLQESGGGLVQPGGSLRLSCAASGYSRTSRWMAWFRQAPGKGLEGVAAIYTGGSSTLYADSVKGRFTISRDNAKNSVYLQMNSLRAEDTAVYYCAADKLAGDFWLVDRWRAWGQGTLVTVSS
notes: Humanized heavy-chain antibody without light chain; also called humanized hcIgG-20; humanized HcIgG
B3: hcIgG-02 (antibody, V domains shown)
VH: QVQLQESGGGSVQAGGSLRLSCAASRDTYTRYFMGWFRQTPGKEGEGVAVLLPGGDYTFYADSVKGRFTITQDSAKNTVYLQMNSLKPEDTAMYYCAADVTVGSRWSQASNYNYWGQGTQVTVSS
notes: also called heavy-chain antibody of Nb-02
B4: hcIgG-03 (antibody, V domains shown)
VH: QVQLQESGGGSVQAGGSLRLSCAASGYTYSGYCMGWFRQAPGKEHEGVASIVSGLGRPYYADSVKGRFTISQDNAKNTVYLQMNSLKPEDTAMYYCAAEWATKLCSEIPATEWDYWGQGTQVTVSS
notes: also called heavy-chain antibody of Nb-03
B5: hcIgG-07 (antibody, V domains shown)
VH: QVQLQESGGGLVQAGGSLKLSCTVSGFAFGSSHMSWVRRAPGKGLEWVSTIHSGGGFGDYANSVQGRFTISRDVAKNTLYLQMNSLKPEDTAIYYCALATDWRKPPGQGTQVTVSS
notes: also called heavy-chain antibody of Nb-07
B6: hcIgG-10 (antibody, V domains shown)
VH: B5 VH with A14P, K19R, T23A, V24A
notes: also called heavy-chain antibody of Nb-10
B7: hcIgG-09 (antibody, V domains shown)
VH: QVQLQESGGGLVQPGGSLRLSCGASGFTFSSTAMWWFRQAPGKGLEWVSSITSDVSGTYYADSVQGRFTISRDNGKNTVYLQMNSLRSEDTALYYCATSCGFSGGTWSCKYRGQGTQVTVSS
notes: also called heavy-chain antibody of Nb-09
B8: hcIgG-16 (antibody, V domains shown)
VH: QVQLQESGGGSVQAGGSLRLSCAASGYTYNKYSWGWFRQAPGKEREGVAGIDSDGSTSYADSVKGRFTISKDNTKNTLYLQMNSLKPEDTAMYYCAASDWVSAIQALGVLAVRPYEYWGQGTQVTVSS
notes: also called heavy-chain antibody of Nb-16

molecular target: GITR protein overexpressed on Hela cells (Hela-GITR-NF-κB-Luc-Rep); test: cell-based or functional assay

B1 and B2 are within 1.5-fold of each other in “EC50 for the activation (NF-κB luciferase reporter)” value: 0.689 nM for the first, 0.663 nM for the second.

molecular target: T1, human GITR-His (human, UniProt Q9Y5U5 26-161); test: ForteBio BLI, antibody on AHQ tip, human GITR-His 100 nM in solution
T1 construct: Bought from Acro biosystems; also called GITR-His (Acro biosystems); antigen GITR-His
T1 sequence: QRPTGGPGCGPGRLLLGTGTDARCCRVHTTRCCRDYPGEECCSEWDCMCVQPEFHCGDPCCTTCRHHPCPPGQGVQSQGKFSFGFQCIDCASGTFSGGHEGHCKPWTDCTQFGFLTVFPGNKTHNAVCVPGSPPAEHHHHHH
Method: (§1) (2) Experimental procedure: 100 μl of SD buffer and antibodies (hcIgG-02, hcIgG-03, hcIgG-04, hcIgG-07, hcIgG-09, hcIgG-10, hcIgG-16 and hcIgG-20, control antibody), GITR-His (Acro biosystems) were added to a 96-well half-volume black polystyrene microplate. The plate was arranged according to the positions of the samples, the position of the sensor was selected, and the operation procedures were set as: Baseline, Loading ˜1 nm, Baseline, Association and Dissociation, each running for a time depending on the binding and dissociation rates of the sample, at a rotation speed of 400 rpm and a temperature of 30° C.
In this experiment, binding kinetics and affinity for the antibody hcIgG-20 before humanization and the antibody HzhcIgG-20 after humanization were determined using the ForteBio method in the same way as in Example 3. ForteBio results are listed in Table 4. hcIgG-20 and HzhcIgG-20 retain the binding ability to GITRs, and the affinity is higher than the control antibody TRX518.

B1 and B2 are within 1.5-fold of each other in Kd: 4.35 nM for the first, 4 nM for the second.

B1 and B2 are within 1.5-fold of each other in koff: 0.000917 s⁻¹ for the first, 0.00128 s⁻¹ for the second.

First: B1
Second: B2
The kon of the first is 1.5-fold lower: 211000 M⁻¹ s⁻¹ for the first, 321000 M⁻¹ s⁻¹ for the second.

molecular target: T2, human GITR overexpressed on CHO cells (CHO-GITR) (human, UniProt Q9Y5U5 26-241); test: flow cytometry on CHO-GITR cells, PE anti-human Fc detection, MFI
T2 construct: whole, on cells; also called cell surface GITR protein; antigen expressed on the cell surface
T2 sequence (looked up): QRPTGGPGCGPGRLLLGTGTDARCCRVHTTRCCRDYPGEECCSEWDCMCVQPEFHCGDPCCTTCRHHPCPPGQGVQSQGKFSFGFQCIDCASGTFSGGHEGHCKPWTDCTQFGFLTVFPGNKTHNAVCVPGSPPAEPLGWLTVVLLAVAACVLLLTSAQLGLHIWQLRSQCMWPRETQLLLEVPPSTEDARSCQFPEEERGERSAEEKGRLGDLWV

B1 and B2 are the same in “EC50 (read off the curve)” value: ~2 nM for the first, ~2 nM for the second.

molecular target: T1, human GITR-His; test: ForteBio BLI, antibody on AHQ tip, human GITR-His 100 nM in solution, 1:1 model
Method: as §1
(3) A 1:1 binding model was adopted for kinetic analysis.

First: B1
Second: B3
The Kd of the first is 3.4-fold lower: 1.85 nM for the first, 6.33 nM for the second.

B4 and B5 are within 1.5-fold of each other in Kd: 5.3 nM for the first, 4.08 nM for the second.

First: B6
Second: B7
The Kd of the first is 1.7-fold higher: 3.22 nM for the first, 1.89 nM for the second.

Work on B8 yielded a Kd of 9.81 nM.

Compared with B1, B3 is 3.3-fold higher in koff: 0.000646 s⁻¹ for the first, 0.00214 s⁻¹ for the second.

First: B4
Second: B5
The koff of the first is 1.7-fold higher: 0.00172 s⁻¹ for the first, 0.00099 s⁻¹ for the second.

First: B6
Second: B7
The koff of the first is 1.5-fold higher: 0.000742 s⁻¹ for the first, 0.000487 s⁻¹ for the second.

For B8, the koff was 0.00114 s⁻¹.

B1 and B3 are within 1.5-fold of each other in kon: 349000 M⁻¹ s⁻¹ for the first, 338000 M⁻¹ s⁻¹ for the second.

B4 and B5 are within 1.5-fold of each other in kon: 324000 M⁻¹ s⁻¹ for the first, 243000 M⁻¹ s⁻¹ for the second.

B6 and B7 are within 1.5-fold of each other in kon: 231000 M⁻¹ s⁻¹ for the first, 257000 M⁻¹ s⁻¹ for the second.

For B8, the kon was 117000 M⁻¹ s⁻¹.

molecular target: T2, human GITR overexpressed on CHO cells …; test: flow cytometry on CHO-GITR cells, PE anti-human Fc detection, MFI; direct binding titration, the table row is labelled IC50, nM is taken from the concentration axis
Method: (1) Cell preparation: The pCHO1.0 vector (Invitrogen) carrying human GITR cDNA cloned to a multiple cloning site (MCS) was transfected into Chinese hamster ovary cancer cells (CHO) (Invitrogen) to produce human GITR-overexpressing CHO cells (CHO-GITR), the CHO cells (CHO-GITR) overexpressing human GITR on the surface thereof were counted, and diluted to 1×10⁶ cells/mL, and added to a U-bottom 96-well plate with 100 μL/well.
(1) Detection: The cell suspension was centrifuged at 400 g for 5 min to remove the cell medium. Serial dilutions of the sample were added to a U-shaped plate, and then the cells were resuspended and added to the plate with 100 μL/well. The plate was put onto the ice to stand for 30 min The cell suspension was centrifuged at 400 g for 5 min, and the supernatant was discarded. The cells were washed once with PBS, and then centrifuged at 400 g for 5 min to remove PBS. 100 μL of the solution of PE-conjugated anti-human Fc antibody (Jackson Immuno Research) diluted at a ratio of 1:200 was added to each well, and the cells were incubated in dark on the ice for 30 min The cell suspension was centrifuged at 400 g for 5 min, and the supernatant was discarded. The cells were washed once with PBS. The cells were resuspended with 100 μL of PBS.

First: B1
Second: B3
The IC50 of the first is 81-fold lower: 0.511 nM for the first, 41.2 nM for the second.

Compared with B4, B5 is 71-fold lower in IC50: 102 nM for the first, 1.44 nM for the second. The second is the more potent here.

First: B6
Second: B7
The IC50 of the first is 3.3-fold lower: 1.47 nM for the first, 4.89 nM for the second.

B8 showed an IC50 of 34.1 nM.
